Results taken from patent US20050282743A1, “Molecular interactions in cells” (Arbor Vita Corporation, priority 2001, published 2005).
Ends that are not written are not given here. * marks the point of attachment. Biotin = O=C1N[C@H]2[C@H](CS[C@H]2CCCCC(=O)*)N1

How the values were obtained:
Test in all cases: G' assay (10 uM PL peptide), results of TABLE 7 and TABLE 12
Format in all cases: binding
[1] = target: T1, PDZ protein (GST-PDZ fusion) (Homo sapiens, UniProt Q02410)
T1 construct: made in house; host or cells: E. coli (DH5alpha, BL21 or JM109)
T1 sequence (Q02410 1-837): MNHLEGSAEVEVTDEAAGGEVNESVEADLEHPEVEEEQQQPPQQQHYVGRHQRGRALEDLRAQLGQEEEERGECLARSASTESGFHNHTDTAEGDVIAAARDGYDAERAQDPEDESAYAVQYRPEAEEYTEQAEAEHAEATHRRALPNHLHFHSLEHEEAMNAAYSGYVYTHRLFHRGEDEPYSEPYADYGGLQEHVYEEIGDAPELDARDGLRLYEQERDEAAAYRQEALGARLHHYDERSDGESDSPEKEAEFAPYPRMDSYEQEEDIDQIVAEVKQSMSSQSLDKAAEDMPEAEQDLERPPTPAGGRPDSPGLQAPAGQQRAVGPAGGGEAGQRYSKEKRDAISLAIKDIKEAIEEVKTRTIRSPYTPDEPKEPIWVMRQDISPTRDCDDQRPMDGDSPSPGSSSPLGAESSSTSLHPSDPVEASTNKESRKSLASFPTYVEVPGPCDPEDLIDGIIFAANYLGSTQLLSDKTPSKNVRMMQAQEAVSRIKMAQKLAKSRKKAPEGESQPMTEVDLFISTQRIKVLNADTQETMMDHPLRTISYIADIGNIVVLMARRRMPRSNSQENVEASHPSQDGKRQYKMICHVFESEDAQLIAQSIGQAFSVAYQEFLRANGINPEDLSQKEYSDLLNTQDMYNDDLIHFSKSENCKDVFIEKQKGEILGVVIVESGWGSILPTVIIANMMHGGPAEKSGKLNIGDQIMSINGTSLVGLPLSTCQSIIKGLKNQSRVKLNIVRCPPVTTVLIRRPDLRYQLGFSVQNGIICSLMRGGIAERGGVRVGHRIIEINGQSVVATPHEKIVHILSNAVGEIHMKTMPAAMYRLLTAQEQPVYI
Summary of the method: (§1)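 Biotin-PL peptide (N-term label), 10 uM vs GST-PDZ; protein 5 ug/ml by default. A450 nm binned: 1 = 0-1, 2 = 1-2, 3 = 2-3, 4 = 3-4, 5 = >4 on >2 repeats, 0 = no binding.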

[2] = target: T2, PDZ protein (GST-PDZ fusion) (Homo sapiens, UniProt Q6P0Q8)
T2 construct: made in house; host or cells: E. coli (DH5alpha, BL21 or JM109)
T2 sequence (Q6P0Q8 whole entry, the tested form may be a part): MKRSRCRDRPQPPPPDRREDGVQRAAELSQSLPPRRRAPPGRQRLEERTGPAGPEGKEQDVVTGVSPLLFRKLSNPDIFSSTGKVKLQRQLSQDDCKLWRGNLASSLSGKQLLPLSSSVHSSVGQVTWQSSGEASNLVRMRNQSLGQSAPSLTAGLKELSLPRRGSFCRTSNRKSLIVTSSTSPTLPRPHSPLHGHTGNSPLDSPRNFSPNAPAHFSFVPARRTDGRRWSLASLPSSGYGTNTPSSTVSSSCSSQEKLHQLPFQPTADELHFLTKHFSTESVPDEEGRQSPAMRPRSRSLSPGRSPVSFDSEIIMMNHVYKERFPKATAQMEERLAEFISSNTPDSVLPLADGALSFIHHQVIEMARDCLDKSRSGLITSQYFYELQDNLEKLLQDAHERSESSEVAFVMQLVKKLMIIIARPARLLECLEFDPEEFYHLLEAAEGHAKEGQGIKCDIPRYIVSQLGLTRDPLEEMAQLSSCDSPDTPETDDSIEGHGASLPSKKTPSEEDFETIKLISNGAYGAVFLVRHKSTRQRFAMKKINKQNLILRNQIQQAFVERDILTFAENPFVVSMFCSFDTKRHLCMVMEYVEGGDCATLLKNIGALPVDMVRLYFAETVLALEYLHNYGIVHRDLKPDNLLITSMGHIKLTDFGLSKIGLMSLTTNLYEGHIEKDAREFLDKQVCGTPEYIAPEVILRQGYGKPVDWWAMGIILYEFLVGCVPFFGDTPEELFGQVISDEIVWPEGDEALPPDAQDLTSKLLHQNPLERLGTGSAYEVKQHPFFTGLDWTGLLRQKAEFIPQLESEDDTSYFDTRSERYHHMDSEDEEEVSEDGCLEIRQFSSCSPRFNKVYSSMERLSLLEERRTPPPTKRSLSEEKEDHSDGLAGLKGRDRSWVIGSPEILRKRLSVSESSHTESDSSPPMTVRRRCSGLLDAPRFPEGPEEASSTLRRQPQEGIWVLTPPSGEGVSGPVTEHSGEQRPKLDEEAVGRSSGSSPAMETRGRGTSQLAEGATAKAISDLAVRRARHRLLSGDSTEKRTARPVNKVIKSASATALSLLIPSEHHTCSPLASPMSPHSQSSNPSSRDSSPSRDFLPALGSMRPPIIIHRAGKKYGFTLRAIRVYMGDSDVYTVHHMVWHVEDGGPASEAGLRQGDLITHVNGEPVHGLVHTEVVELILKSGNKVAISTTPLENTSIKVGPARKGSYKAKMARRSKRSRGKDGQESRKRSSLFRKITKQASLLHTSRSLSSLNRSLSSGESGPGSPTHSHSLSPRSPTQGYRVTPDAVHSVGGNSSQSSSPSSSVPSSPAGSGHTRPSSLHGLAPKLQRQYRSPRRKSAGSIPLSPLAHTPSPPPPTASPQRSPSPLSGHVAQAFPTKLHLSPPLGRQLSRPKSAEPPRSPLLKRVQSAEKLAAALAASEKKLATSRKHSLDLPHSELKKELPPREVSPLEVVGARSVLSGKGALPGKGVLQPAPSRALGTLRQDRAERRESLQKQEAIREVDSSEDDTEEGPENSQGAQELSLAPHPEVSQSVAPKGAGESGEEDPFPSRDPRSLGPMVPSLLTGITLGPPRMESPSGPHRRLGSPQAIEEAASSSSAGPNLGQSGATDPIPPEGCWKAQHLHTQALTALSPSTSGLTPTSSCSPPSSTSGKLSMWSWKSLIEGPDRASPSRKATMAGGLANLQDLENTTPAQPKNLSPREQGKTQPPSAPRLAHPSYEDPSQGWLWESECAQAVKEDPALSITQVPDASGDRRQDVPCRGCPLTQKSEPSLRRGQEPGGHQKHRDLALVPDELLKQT
Summary of the method: as §1

[3] = target: T3, PDZ protein (GST-PDZ fusion) (Homo sapiens, UniProt O15018); conditions: PDZ AIPC, PDZ Domain 1
T3 construct: made in house; host or cells: E. coli (DH5alpha, BL21 or JM109)
Summary of the method: as §1

[4] = target: T4, PDZ protein (GST-PDZ fusion) (Homo sapiens, UniProt Q9Y2H9); conditions: PDZ KIAA0973, PDZ Domain 1
T4 construct: made in house; host or cells: E. coli (DH5alpha, BL21 or JM109)
T4 sequence (Q9Y2H9 whole entry, the tested form may be a part): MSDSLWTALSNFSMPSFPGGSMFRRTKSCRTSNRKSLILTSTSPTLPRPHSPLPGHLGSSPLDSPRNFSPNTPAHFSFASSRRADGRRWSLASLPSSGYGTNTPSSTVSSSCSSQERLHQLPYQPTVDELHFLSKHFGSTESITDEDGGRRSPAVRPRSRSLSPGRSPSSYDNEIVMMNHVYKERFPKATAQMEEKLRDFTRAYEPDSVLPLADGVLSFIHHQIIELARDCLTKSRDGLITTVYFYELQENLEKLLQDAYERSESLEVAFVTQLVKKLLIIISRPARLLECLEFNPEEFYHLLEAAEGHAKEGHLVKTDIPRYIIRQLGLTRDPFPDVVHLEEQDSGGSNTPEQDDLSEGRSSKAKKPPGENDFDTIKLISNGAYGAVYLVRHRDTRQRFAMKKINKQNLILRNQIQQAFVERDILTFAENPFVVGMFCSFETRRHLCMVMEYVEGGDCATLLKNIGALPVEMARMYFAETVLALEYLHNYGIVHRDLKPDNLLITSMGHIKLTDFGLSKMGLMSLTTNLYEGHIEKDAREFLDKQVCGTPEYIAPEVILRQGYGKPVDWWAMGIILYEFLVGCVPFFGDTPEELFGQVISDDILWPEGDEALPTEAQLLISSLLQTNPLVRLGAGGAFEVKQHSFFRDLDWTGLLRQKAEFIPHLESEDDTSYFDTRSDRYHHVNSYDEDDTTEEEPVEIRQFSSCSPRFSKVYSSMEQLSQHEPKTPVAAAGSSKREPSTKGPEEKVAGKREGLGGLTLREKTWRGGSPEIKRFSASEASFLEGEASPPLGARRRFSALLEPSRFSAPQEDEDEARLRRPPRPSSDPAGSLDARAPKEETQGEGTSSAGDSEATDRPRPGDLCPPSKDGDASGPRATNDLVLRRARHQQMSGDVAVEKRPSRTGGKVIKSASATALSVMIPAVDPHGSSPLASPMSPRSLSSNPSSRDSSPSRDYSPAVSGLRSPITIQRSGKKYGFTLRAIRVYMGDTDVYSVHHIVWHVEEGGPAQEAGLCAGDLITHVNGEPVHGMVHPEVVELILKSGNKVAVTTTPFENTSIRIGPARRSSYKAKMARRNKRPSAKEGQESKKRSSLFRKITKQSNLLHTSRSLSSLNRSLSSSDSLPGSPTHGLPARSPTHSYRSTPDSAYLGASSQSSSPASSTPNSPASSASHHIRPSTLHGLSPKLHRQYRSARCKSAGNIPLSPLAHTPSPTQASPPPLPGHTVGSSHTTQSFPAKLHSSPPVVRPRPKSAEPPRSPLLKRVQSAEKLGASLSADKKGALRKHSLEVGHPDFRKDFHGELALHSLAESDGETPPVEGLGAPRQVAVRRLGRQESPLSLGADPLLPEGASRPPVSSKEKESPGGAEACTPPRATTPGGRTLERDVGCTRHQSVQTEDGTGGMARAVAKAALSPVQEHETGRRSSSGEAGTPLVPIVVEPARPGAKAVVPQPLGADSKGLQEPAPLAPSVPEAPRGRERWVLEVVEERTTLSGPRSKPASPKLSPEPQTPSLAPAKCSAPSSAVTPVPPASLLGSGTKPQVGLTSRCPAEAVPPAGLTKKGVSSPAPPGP
Summary of the method: as §1

[5] = target: T5, PDZ protein (GST-PDZ fusion) (Homo sapiens, UniProt Q13796); conditions: PDZ hAPXL, PDZ Domain 1
T5 construct: made in house; host or cells: E. coli (DH5alpha, BL21 or JM109)
Summary of the method: as §1

[6] = target: T6, PDZ protein (GST-PDZ fusion) (Homo sapiens, UniProt O15085); conditions: PDZ KIAA0380, PDZ Domain 1
T6 construct: made in house; host or cells: E. coli (DH5alpha, BL21 or JM109)
Summary of the method: as §1

[7] = target: T7, PDZ protein (GST-PDZ fusion) (Homo sapiens, UniProt Q9UDY2); conditions: PDZ ZO-2, PDZ Domain 2
T7 construct: made in house; host or cells: E. coli (DH5alpha, BL21 or JM109)
T7 sequence (Q9UDY2 1-1190): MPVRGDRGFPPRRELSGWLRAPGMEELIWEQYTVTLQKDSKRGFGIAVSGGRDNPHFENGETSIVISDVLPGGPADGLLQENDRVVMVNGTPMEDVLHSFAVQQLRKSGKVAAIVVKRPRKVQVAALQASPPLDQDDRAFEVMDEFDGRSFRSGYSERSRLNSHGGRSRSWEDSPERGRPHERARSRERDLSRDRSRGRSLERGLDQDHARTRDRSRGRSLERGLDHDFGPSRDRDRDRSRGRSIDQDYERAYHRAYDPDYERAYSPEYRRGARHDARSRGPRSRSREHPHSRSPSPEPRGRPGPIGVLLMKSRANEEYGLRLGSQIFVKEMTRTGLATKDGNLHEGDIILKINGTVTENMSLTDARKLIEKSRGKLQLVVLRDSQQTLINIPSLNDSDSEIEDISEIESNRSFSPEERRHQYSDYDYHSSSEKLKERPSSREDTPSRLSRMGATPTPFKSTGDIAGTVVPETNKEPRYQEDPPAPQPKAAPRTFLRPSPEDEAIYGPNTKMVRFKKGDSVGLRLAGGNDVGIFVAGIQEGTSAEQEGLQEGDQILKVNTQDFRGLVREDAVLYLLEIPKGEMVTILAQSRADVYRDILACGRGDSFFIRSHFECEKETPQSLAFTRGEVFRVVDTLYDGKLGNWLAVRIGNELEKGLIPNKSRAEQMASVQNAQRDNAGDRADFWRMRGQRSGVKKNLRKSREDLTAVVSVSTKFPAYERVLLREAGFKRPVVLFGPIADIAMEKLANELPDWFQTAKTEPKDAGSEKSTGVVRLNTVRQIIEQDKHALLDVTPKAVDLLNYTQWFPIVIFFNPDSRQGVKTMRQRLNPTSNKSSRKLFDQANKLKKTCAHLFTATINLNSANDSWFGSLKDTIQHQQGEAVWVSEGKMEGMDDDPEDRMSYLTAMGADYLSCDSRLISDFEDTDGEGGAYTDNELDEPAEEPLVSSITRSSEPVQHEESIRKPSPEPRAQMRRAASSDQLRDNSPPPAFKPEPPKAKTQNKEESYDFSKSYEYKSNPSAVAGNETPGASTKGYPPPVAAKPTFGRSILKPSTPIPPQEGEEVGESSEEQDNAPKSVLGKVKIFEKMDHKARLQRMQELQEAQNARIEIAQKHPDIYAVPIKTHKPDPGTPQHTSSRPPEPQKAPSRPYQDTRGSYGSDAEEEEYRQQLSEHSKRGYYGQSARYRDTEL
Summary of the method: as §1

[8] = target: T8, PDZ protein (GST-PDZ fusion) (Homo sapiens, UniProt Q07157)
T8 construct: made in house; host or cells: E. coli (DH5alpha, BL21 or JM109)
T8 sequence (Q07157 whole entry, the tested form may be a part): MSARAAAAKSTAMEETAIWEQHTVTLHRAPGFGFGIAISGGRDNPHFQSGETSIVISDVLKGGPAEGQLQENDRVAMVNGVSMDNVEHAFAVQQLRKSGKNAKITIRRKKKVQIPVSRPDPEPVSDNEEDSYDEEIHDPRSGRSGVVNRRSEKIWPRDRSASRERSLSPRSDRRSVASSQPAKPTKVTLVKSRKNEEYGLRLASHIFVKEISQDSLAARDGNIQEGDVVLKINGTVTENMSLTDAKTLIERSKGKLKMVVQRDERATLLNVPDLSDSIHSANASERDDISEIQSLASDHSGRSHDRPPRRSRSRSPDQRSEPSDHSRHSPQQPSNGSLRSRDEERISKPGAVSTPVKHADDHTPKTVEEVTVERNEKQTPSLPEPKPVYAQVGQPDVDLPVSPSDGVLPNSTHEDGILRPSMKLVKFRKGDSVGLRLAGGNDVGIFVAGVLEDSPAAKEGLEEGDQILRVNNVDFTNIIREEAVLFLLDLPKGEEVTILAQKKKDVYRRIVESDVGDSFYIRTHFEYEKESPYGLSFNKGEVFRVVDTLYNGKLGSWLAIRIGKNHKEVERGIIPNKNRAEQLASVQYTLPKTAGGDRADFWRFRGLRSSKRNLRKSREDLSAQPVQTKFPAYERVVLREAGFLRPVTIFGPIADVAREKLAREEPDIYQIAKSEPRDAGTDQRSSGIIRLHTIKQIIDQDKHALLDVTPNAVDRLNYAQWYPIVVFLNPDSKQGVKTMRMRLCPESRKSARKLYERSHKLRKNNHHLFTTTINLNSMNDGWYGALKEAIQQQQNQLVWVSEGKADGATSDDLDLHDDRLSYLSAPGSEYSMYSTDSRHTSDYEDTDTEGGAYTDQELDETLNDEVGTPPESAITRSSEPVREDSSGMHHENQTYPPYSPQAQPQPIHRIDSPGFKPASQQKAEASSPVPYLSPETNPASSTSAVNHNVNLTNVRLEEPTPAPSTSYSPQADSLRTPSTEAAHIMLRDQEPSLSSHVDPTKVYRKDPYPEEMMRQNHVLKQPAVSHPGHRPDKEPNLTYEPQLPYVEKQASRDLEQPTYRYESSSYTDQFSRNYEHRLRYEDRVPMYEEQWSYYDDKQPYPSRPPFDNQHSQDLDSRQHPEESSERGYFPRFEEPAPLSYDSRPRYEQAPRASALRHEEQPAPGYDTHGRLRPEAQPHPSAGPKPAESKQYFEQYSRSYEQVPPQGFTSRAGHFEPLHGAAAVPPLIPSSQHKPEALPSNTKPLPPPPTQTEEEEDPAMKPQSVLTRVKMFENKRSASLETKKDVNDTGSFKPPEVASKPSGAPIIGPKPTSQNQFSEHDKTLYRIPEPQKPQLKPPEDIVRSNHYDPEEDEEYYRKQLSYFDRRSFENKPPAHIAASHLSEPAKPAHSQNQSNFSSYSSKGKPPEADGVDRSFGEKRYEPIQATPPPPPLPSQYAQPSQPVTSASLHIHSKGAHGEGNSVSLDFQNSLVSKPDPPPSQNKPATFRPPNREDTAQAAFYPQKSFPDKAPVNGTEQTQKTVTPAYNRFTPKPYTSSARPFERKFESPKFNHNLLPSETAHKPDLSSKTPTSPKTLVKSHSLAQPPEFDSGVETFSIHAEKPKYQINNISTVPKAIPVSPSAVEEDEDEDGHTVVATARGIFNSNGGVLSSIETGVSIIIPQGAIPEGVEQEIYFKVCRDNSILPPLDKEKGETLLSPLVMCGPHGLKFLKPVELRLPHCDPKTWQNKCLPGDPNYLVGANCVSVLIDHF
Summary of the method: as §1

[9] = target: T9, PDZ protein (GST-PDZ fusion) (Homo sapiens, UniProt Q9P202); conditions: PDZ KIAA1526, PDZ Domain 1
T9 construct: made in house; host or cells: E. coli (DH5alpha, BL21 or JM109)
T9 sequence (Q9P202 1-907): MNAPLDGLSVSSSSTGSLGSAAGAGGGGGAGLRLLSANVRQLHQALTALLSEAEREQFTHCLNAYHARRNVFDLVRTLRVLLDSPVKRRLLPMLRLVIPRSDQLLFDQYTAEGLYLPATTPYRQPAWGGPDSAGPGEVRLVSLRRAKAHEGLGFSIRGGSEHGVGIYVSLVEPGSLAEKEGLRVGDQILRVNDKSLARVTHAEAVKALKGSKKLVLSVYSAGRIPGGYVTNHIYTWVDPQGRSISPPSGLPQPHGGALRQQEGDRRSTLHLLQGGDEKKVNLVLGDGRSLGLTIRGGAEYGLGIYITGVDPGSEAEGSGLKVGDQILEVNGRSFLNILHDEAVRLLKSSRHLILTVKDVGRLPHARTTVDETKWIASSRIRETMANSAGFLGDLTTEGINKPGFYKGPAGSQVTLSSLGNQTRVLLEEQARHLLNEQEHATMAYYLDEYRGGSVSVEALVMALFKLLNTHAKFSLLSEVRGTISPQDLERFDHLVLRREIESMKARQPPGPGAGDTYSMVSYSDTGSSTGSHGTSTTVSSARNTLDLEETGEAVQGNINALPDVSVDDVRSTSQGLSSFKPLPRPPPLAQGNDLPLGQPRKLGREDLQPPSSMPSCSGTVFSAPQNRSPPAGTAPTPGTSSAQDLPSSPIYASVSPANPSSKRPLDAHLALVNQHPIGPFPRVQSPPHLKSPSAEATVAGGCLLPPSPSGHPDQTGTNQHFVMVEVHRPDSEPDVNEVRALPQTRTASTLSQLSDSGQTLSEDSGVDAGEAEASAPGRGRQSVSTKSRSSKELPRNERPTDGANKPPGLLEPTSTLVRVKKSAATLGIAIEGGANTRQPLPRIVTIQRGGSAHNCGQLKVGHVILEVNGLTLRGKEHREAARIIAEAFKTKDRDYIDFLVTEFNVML
Summary of the method: as §1

[10] = system: PDZ protein (GST-PDZ fusion)
Summary of the method: as §1

[11] = target: T10, PDZ protein (GST-PDZ fusion) (Homo sapiens, UniProt Q5T2W1); conditions: PDZ PDZK1, PDZ Domain 2, 3, 4
T10 construct: made in house; host or cells: E. coli (DH5alpha, BL21 or JM109)
T10 sequence (Q5T2W1 1-519): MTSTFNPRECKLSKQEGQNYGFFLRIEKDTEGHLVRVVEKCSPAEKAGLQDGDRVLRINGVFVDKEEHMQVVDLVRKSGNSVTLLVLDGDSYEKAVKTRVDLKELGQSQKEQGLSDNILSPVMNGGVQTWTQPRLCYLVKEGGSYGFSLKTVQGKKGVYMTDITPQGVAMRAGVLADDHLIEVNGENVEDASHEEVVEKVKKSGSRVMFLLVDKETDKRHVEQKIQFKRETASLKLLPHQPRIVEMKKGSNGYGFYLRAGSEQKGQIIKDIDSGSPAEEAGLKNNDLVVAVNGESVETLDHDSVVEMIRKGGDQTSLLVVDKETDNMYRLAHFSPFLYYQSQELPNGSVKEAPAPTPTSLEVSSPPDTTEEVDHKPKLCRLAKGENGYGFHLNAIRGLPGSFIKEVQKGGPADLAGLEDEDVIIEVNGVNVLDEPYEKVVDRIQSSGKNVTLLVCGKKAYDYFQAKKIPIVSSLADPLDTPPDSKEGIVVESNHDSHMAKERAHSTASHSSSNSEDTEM
Summary of the method: as §1

[12] = target: T11, PDZ protein (GST-PDZ fusion) (Homo sapiens, UniProt Q12959); conditions: PDZ DLG1, PDZ Domain 1, 2
T11 construct: made in house; host or cells: E. coli (DH5alpha, BL21 or JM109)
Summary of the method: as §1

[13] = target: T12, PDZ protein (GST-PDZ fusion) (Homo sapiens, UniProt P50479); conditions: PDZ LIM RIL, PDZ Domain 1
T12 construct: made in house; host or cells: E. coli (DH5alpha, BL21 or JM109)
T12 sequence (P50479 1-330): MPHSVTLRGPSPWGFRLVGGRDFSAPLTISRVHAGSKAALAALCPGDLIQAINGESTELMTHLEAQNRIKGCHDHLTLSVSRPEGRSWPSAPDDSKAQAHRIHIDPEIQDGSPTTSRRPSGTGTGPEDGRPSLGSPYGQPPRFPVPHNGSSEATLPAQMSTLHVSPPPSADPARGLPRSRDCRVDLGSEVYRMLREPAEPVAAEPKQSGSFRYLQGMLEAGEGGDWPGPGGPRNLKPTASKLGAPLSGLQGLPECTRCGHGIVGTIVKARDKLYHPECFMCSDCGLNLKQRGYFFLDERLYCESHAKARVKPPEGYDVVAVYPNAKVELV
Summary of the method: as §1

[14] = target: T13, PDZ protein (GST-PDZ fusion) (Homo sapiens, UniProt Q8NI35); conditions: PDZ INADL, PDZ Domain 8
T13 construct: made in house; host or cells: E. coli (DH5alpha, BL21 or JM109)
Summary of the method: as §1

[15] = target: T14, PDZ protein (GST-PDZ fusion) (Homo sapiens, UniProt O75970); conditions: PDZ MUPP-1, PDZ Domain 10
T14 construct: made in house; host or cells: E. coli (DH5alpha, BL21 or JM109)
Summary of the method: as §1

SSKSKSSEESQTFFGLYKL (Biotin-SSKSKSSEESQTFFGLYKL) [Fas Ligand]
Classification ([1]; PDZ Mint 1, PDZ Domain 1, 2): 4 (A450 nm 3-4)
Classification ([2]; PDZ KIAA807): 5 (A450 nm of 4 more than 2× repeated)
Classification ([2]; PDZ KIAA0807(S), PDZ Domain 1): 5 (A450 nm of 4 more than 2× repeated)
Classification [3]: 2 (A450 nm 1-2)
Classification [4]: 2 (A450 nm 1-2)
Classification [5]: 2 (A450 nm 1-2)
Classification [6]: 3 (A450 nm 2-3)

TEGNESSEATSPVNAIYSLA (Biotin-TEGNESSEATSPVNAIYSLA) [neurofascin (chicken)]
Classification [7]: 1 (A450 nm 0-1)
Classification ([8]; PDZ ZO-1, PDZ Domain 1): 1 (A450 nm 0-1)
Classification ([8]; PDZ ZO-1, PDZ Domain 2): 1 (A450 nm 0-1)
Classification [9]: 1 (A450 nm 0-1)

PSSRASSRASSRPRPDDLEI (Biotin-PSSRASSRASSRPRPDDLEI) [CX43]
Classification [7]: 1 (A450 nm 0-1)
Classification ([8]; PDZ ZO-1, PDZ Domain 2): 2 (A450 nm 1-2)
PDZ proteins bound by the PL (TABLE 7) ([10]; as cited in the text from TABLE 7): ZO-2 and ZO-1

SSR4_HUMAN (EALQPEPGRKRIPLTRTTTF)
Classification ([1]; PDZ Mint 1, PDZ Domain 1, 2): 1 (A450 nm 0-1)
Classification ([10]; PDZ BAI-1, PDZ Domain 4): 1 (A450 nm 0-1)
Classification ([10]; PDZ BAI-1, PDZ Domain 5): 1 (A450 nm 0-1)
Classification ([2]; PDZ KIAA807): 1 (A450 nm 0-1)
Classification [11]: 1 (A450 nm 0-1)
Classification [12]: 1 (A450 nm 0-1)

INSVGSTASSSQPLLVHDDV (Biotin-INSVGSTASSSQPLLVHDDV) [c-kit receptor]
Classification [13]: 1 (A450 nm 0-1)
Classification ([1]; PDZ Mint 1, PDZ Domain 2): 1 (A450 nm 0-1)
Classification [14]: 1 (A450 nm 0-1)
Classification [15]: 1 (A450 nm 0-1)
